Drawing on PMC7305319, “Talin dissociates from RIAM and associates to vinculin sequentially in response to the actomyosin force” (Nature Communications, 2020), this text covers Kd, binding result and percent of RIAM dissociated from talin for 3 molecules.

Read-outs that look alike come from different tables or passages of the source.

In experiment [1] the target is RIAM (Homo sapiens) (UniProt Q7Z5R6). The conditions noted are these: cited from earlier work.
A further experiment concerns the target Talin R1-R2-R3 (UniProt Q9Y490). The conditions noted are these: cited from earlier work.
For experiment [2], the target named is RIAM (Homo sapiens) (UniProt Q7Z5R6). The conditions noted are these: cited from earlier work. The source holds these as a separate data set.
Experiment [3] addresses T1, talin F2–F3–R1–R2–R3 (talin 196–911) (human, UniProt Q9Y490 196-911).
T1 construct: human talin-1, F2–F3–R1–R2–R3, residues 196–911; The methods tell of GST cleavage only for mCherry-RIAM 1-306 and EGFP-Vh, so GST was probably kept on this construct; also called the same construct fused to R1–R2–R3; source: E. coli BL21 DE3, purified (glutathione-Sepharose, Ni-NTA)
In words: fluorescence microscopy of protein-coated micropatterns; talin construct (1 µM during coating) on 5 µm disk micropatterns, 0–1 µM mCherry-RIAM 1-306 in solution, no actomyosin; Kd estimated as the RIAM concentration at half saturation. The following applies: both partners purified.

In experiment [4] the target is T2, talin R1–R2–R3 (F2–F3–R1–R2–R3–R13) (human).
T2 chain: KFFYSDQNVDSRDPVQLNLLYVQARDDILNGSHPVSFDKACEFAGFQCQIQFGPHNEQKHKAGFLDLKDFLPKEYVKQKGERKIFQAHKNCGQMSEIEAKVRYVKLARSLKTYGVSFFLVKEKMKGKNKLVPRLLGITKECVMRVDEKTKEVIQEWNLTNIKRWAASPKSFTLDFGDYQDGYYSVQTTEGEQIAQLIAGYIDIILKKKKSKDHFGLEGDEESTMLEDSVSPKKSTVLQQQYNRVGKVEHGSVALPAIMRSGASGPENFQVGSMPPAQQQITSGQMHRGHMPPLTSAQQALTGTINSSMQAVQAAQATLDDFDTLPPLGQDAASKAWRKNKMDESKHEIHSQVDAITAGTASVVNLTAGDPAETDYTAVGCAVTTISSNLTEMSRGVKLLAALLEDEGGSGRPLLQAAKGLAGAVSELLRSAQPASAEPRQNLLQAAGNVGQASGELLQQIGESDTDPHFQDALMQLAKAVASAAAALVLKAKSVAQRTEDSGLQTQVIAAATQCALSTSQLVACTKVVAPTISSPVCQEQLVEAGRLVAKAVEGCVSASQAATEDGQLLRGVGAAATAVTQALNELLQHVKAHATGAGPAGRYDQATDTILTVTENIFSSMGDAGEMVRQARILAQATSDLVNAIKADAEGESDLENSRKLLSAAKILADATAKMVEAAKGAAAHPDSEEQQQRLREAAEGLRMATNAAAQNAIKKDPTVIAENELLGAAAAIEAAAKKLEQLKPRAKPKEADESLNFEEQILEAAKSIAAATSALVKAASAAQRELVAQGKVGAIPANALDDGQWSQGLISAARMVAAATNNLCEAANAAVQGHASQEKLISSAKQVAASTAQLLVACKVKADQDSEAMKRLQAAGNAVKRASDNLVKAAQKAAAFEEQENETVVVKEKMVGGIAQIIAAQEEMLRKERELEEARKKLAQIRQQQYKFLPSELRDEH
The description is as above.

Experiment [5] concerns the target T2, talin R1–R2–R3 (F2–F3–R1–R2–R3–R13). In words: fluorescence microscopy of protein-coated micropatterns; talin construct (1 µM during coating) on disk micropatterns, 100 nM mCherry-RIAM 1-306 in solution, with actomyosin (2.4 µM actin, 50 nM myosin II) applying force to talin.
The target is the same in experiment [6].
The target in experiment [7] is T3, talin R7–R8 (F2–F3–R7–R8–R13) (human).
T3 chain: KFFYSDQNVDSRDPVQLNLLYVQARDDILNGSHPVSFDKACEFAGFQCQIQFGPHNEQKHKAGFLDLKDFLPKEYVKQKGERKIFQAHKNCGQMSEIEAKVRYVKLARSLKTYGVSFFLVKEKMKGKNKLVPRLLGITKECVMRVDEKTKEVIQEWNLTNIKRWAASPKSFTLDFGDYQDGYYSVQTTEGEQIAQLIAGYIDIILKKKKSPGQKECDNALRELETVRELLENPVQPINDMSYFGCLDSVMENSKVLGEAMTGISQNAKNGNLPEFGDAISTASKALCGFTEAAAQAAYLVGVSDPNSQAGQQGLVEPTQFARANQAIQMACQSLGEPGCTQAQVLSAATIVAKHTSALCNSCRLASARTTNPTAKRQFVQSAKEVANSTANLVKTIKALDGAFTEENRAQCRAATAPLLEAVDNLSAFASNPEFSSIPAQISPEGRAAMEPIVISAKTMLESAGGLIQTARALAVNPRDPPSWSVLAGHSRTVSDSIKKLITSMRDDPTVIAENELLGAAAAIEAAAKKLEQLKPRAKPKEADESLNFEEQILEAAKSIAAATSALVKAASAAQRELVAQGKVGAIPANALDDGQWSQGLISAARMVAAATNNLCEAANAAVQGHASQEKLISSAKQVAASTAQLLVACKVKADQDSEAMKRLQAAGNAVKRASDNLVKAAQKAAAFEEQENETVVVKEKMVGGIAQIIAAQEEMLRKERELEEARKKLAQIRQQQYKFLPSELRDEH

For experiment [8], the target named is T4, talin R11 (F2–F3–R11–R13) (human).
T4 chain: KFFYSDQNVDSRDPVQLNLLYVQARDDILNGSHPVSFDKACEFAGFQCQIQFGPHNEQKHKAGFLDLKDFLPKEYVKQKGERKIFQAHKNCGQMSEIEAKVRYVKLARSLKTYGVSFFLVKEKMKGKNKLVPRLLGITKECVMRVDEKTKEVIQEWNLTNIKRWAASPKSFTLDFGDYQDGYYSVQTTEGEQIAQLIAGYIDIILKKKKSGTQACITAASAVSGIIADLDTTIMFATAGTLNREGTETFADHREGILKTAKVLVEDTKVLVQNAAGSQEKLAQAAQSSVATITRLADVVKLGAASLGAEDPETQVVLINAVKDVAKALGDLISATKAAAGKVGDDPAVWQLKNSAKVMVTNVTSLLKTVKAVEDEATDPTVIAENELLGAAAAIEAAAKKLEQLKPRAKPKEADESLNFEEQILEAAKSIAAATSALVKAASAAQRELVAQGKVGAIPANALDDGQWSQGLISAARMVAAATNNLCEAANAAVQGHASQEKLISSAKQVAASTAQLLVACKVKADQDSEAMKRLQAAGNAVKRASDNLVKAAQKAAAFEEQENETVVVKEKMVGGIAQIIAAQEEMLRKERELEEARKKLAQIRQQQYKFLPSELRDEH

Sequence of RIAM (Homo sapiens) (Q7Z5R6 whole entry): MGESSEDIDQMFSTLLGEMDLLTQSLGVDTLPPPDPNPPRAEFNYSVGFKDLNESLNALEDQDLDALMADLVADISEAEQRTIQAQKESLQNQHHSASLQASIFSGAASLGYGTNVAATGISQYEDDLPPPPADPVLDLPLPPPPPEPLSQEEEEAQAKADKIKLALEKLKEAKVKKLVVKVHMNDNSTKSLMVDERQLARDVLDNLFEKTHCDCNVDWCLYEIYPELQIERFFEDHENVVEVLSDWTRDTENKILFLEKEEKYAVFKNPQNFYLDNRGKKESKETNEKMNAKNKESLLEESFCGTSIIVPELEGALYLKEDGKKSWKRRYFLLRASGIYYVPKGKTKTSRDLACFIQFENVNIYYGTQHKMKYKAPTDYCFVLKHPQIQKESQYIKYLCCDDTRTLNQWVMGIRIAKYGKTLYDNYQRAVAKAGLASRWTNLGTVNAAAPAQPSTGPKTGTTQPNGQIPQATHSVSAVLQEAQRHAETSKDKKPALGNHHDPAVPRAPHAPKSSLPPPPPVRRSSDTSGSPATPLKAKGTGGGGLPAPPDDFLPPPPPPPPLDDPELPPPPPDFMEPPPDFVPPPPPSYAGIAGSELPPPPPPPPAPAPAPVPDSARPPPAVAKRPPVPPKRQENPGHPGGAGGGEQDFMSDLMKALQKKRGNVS

With Vinculin Vh (from UniProt P18206), the values for the Kd with RIAM (Homo sapiens) [1] and with Talin R1-R2-R3 were 5000 nM and 140 nM, respectively.

In the case of Talin F3 (from UniProt P26039), the dissociation constant Kd in the experiment with RIAM (Homo sapiens) [2] is 32000 nM.

B1: mCherry-RIAM 1-306 (domain or fragment, mouse, UniProt Q8R5A3 1-306, looked up)
chain: MGESNEDIDQMFSTLLGEMDLLTQSLGVDTLPPPDPNPPREEFNYTVGFKDLNESLNALEDQDLDALMADLVADISEAEQRTIQAQKESSQNQDRFALLRASDGQGTASGGYGASAAAIDVSHHEEALPPPPVEPMLDLLPPPPPPPPPELLSKEEEEAKAKADKIKLALEKLKEAKVKKLVVKVHMDDSSTKSLMVDERQLARDVLDNLFEKTHCDCNVDWCLYEIYPELQIERVFEDHENVVEVLSDWTRDTENKVLFLEKEERYAVFKNPQNFYLDNKGKKENKETNEKMNAKNKEYLLEESF
notes: Cloned in a homemade pGEX-6P2-mCherry plasmid; source: E. coli BL21 DE3, purified (glutathione-Sepharose, PreScission cleavage, Ni-NTA); not shown: GST, N-terminal, cleaved
With B1, in experiment [3], the binding result is reported as “binds”. Further, the Kd in [4] was 36 nM; in experiment [6], 134 nM; in [7], 38 nM; in experiment [8], 36 nM. This molecule came in with a percent of RIAM dissociated from talin at the end of the kinetics with actomyosin in experiment [5] of 50%.
